Values of other authors, collected in article PMC11053944.

What was measured:
[1] = target: Sba1 (Saccharomyces cerevisiae) (UniProt P28707); experiment: SPR
[2] = target: Sba1 (Saccharomyces cerevisiae) (UniProt P28707); experiment: ITC

Chain of Sba1 (Saccharomyces cerevisiae) (P28707 2-216): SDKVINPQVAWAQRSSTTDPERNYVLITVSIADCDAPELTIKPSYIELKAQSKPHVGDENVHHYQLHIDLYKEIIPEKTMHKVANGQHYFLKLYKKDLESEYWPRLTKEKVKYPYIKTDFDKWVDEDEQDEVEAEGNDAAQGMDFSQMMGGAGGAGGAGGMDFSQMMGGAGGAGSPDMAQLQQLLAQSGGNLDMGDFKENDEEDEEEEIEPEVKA

Kd [1]: 0.54 µM | Kd [2]: 1.75 µM
Substance: HSP90 (from UniProt P02829)
